# From patent US20160194391A1 (AstraZeneca / MedImmune, published 2016)
# Read-outs that look alike come from different tables or passages of the source.
# T1: human dimeric IL-23 (eBiosciences 34-8239) (human, UniProt P29460 23-328; Q9NPF7 20-189)
# T1 sequence (looked up) 1: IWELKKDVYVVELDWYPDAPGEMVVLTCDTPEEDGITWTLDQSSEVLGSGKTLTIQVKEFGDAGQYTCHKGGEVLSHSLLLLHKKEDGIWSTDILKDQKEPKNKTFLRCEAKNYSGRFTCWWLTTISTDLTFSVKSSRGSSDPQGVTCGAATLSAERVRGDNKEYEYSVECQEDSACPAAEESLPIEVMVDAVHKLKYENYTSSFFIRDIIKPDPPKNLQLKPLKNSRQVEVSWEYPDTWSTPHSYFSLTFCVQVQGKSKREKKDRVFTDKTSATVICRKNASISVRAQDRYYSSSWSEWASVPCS
# T1 sequence (looked up) 2: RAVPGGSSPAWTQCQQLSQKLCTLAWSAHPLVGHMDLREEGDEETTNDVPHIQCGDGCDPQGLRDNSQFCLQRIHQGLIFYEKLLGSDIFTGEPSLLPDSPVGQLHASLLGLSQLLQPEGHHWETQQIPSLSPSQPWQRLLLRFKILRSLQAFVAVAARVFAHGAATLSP
# Legend:
# [1] = target: T1, human dimeric IL-23 (eBiosciences …); assay: cell-based or functional assay
# [2] = target: T2, human IL-6 (human, UniProt P05231 30-212); assay: cell-based or functional assay
# [3] = target: T2, human IL-6; assay: SPR (SensiQ Pioneer), mAb captured on protein G, IL-6 as analyte (3×FLAG-IL-6 or IL-6 CYT-213, 1-100 nM), 25 C, 1:1 model
# Method: Equilibrium constants for rabbit human chimeric mAbs were determined by binding the mAb to the protein G coated chip followed by binding of each analyte (IL-6 or IL-23) to its respective mAb. In order to minimize mass transfer effects, the surface densities of the mAbs for each analyte were adjusted so that as analyte binding approached saturation its corresponding RU fell between 200 and 300. […] For each binding and dissociation cycle the chip surface was regenerated with 15 uL of 20 mM NaOH (5671-02, Mallinckrodt Baker, Philliphsburg, N.J.). The assay temperature was maintained at 25° C. with an analyte flow rate of 50 μL/min and included a 2 minute association phase and 10-30 minute dissociation phase. The on/off rates (kₐ/kd) and dissociation constants (KD) were determined using the format described above along with pseudo-first-order 1:1 interaction model software (Qdat, ICx Nomadics, Stillwater, Okla.).
# [4] = target: T3, 3×FLAG-IL-6 (human); assay: SPR, 3×FLAG-IL-6 captured by anti-FLAG M2 on protein G, scFv as analyte (1-100 nM)
# T3 construct: it may hold the pre-pro-trypsin leader
# T3 sequence (chain, as listed by the source limits assumed): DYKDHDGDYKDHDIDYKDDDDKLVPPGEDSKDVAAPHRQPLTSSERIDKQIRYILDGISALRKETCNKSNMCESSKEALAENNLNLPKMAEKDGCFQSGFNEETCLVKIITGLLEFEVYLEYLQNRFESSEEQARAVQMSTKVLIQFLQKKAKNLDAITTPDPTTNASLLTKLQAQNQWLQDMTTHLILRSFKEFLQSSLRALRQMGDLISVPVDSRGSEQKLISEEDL
# Method: Equilibrium constants for scFvs were determined as previously described; however, the protocol was modified so that an epitope tagged IL-6 was captured on the chip surface and the dissociation of anti-IL-6 scFvs from IL-6 was monitored. Briefly, anti-FLAG® M2 antibody (200472, Agilent Technologies, Santa Clara, Calif.) was bound to Protein G, and then 3×FLAG-IL-6 was captured by the anti-FLAG antibody. The anti-IL-6 scFvs were assayed over a range of concentrations between 1 and 100 nM.
# Anti IL-6 scFvs, humanized using the one step method, retained IL-6 neutralization activity when expressed in mammalian cells, as shown for 13A8 (FIG. 11A and FIG. 11B), 28D2 and 9C8 v3-1 (FIG. 11C).
# [5] = target: T2, human IL-6; assay: cell-based or functional assay; remark: listed apart in the source
# [6] = target: T3, 3×FLAG-IL-6; assay: SPR, 3×FLAG-IL-6 captured by anti-FLAG M2 on protein G, scFv as analyte (1-100 nM); remark: listed apart in the source
binder,measurement,setting,value
"14B5 chimeric mAb (antibody, V domains shown) VH: QSVEESGGRLVTPGTPLTLTCAVSGFSLSDYTMIWVRQAPGEGLEWIGIISSSGNTYYATWVKGRFTISKTSTTVDLKMISPTTEDTATYFCARGSGAYISDYFNVWGPGTLVTVSS VL: FELTQTPSSVEAAVEGTVTIKCQASQSIDSWLSWYQQKPGQPPKLLIYAASKLATGVPSRFSGSGSGTQFTLTIGDLECADAATYYCQSYYDVNAGYGFGGGTEVVVVR",EC50: concentration necessary to inhibit bioactivity of 50 pg/ml of IL-6,[1],0.767 ng/mL
"9C8 chimeric mAb (antibody, V domains shown, Rabbit/human chimeric IgG (human IgG1, kappa); HEK293; also called 9C8 clone) VH: QSVEESGGRLVTPGTPLTLTCTVSGIDLSSYDMSWVRQAPGKGLEWIGYIYTDSSTYYANWAKGRFTISKTSTTVDLKMTSLTTEDTATYFCAKGSTDYAFDTRLDLWGPGTLVTVS VL: AYDMTQTPASVEVAMGGTVTIKCQASQSISNELSWYQQKPGQPPKLLIYRTSTLASGVSSRFKGSGSGTEYTLTISGVECADAATYYCQQGYNSNDVDNVFGGGTKVVVVR","EC50, inhibition of IL-6 induced B9 cell proliferation",[2],0.4 ng/mL
same,Kd,[3],42 pM
same,koff,[3],3.17e-05 s⁻¹
same,kon,[3],765000 M⁻¹ s⁻¹
"9C8 humanized scFv (9C8 Hum scFv v3-1) (scFv, the sentence before it names 9C8 v3-1; purified by 6×His tag; also called 9C8 scFv v3-1; 9C8v3-1) scFv: DIQMTQSPSSVSASVGDRVTITCQASQSISNELSWYQQKPGKAPKLLIYRTSTLASGVPSRFSGSGSGTDFTLTISSLQPEDFATYYCQQGYNSNDVDNVFGGGTKVEIKGGGGSGGGGSGGGGSGGGGSEVQLVESGGGLVQPGGSLRLSCTVSGIDLSSYDMSWVRQAPGKGLEWVGYIYTDSSTYYANWAKGRFTISRDNSKNTLYLQMNSLRAEDTAVYYCARGSTDYAFDTRLDLWGQGTLVTVSSGPPPPPHHHHHH","EC50, inhibition of IL-6 induced B9 cell proliferation",[2],0.319 ng/mL
same,Kd,[4],89 pM
same,koff,[4],4.03e-05 s⁻¹
same,kon,[4],447000 M⁻¹ s⁻¹
"28D2 chimeric mAb (antibody, V domains shown) VH: QSLGESGGRLVTPGTPLTLTCTVSGLSLSKNAIAWVRQAPGKGLEWIGIIYAGGATTYASWAKGRFTISKSSTTVDLKITSPTTVDTATYFCAREYAGDSYYTGYTQLDLWGPGTLVTVSS VL: ALVMTQTPASVSAAVGGTVTINCQASEDLFSSLAWFQQKPGQPPKLLIYSASTLASGVPSRFSGSGSGTEFTLTISDLECADAATYYCLGLYYYLTPDPIYGFGGGTKVVVV","EC50, inhibition of IL-6 induced B9 cell proliferation",[2],0.065 ng/mL
"13A8n-PEG20-31A12c bispecific (bispecific antibody, C-terminal azidohomoalanine (Aha) joined through a linear 20 kDa PEG to the Aha of the other scFv; N-terminal azidohomoalanine (Aha) joined through a linear 20 kDa PEG to the Aha of the other scFv) scFv 1: DIQLTQSPSFLSASVGDRVTITCQASQSISNELSWYQQKPGKAPKLLIYRASTLTSGVPSRFSGSGSGTEFTLTISSLQPEDFATYYCQQGYNSNDVDNVFGGGTKVEIKGGGGSGGGGSGGGGSGGGGSEVQLVESGGGLVQPGGSLRLSCTVSGIDLSSYDLSWVRQAPGKGLEWVGYIYTDSSTWYANWAKGRFTISRDNSKNTLYLQLNSLRAEDTAVYYCARGSTDYAFDTRLDLWGQGTLVTVSS scFv 2: DIQLTQSPSFLSASVGDRVTITCQASEDIESYLAWYQQKPGKAPKLLIYSASTLTSGVPSRFSGSGSGTEFTLTISSLQPEDFATYYCLGADDTTTVFGGGTKVEIKGGGGSGGGGSGGGGSGGGGSEVQLVESGGGLVQPGGSLRLSCTASGFSLSSYWLTWVRQAPGKGLEWVGTIATSSTYYASWAKGRFTISRDNSKNTLYLQLNSLRAEDTAVYYCARGLTTDYDLDLWGQGTLVTVSS","EC50, neutralization of IL-6, first batch",[5],1.67 ng/mL
same,"EC50, neutralization of IL-6, second batch",[5],1.69 ng/mL
same,"EC50, neutralization of IL-23, first batch",[1],4.96 ng/mL
same,"EC50, neutralization of IL-23, second batch",[1],3.25 ng/mL
"13A8n-PEG-45G5c bispecific (bispecific antibody, C-terminal azidohomoalanine (Aha) joined through a 20 kDa PEG to the Aha of the other scFv; N-terminal azidohomoalanine (Aha) joined through a 20 kDa PEG to the Aha of the other scFv) scFv 1: DIQLTQSPSFLSASVGDRVTITCQASQSISNELSWYQQKPGKAPKLLIYRASTLTSGVPSRFSGSGSGTEFTLTISSLQPEDFATYYCQQGYNSNDVDNVFGGGTKVEIKGGGGSGGGGSGGGGSGGGGSEVQLVESGGGLVQPGGSLRLSCTVSGIDLSSYDLSWVRQAPGKGLEWVGYIYTDSSTWYANWAKGRFTISRDNSKNTLYLQLNSLRAEDTAVYYCARGSTDYAFDTRLDLWGQGTLVTVSS scFv 2: MADIQLTQSPSFLSASVGDRVTITCQSSQSIYNNNLLSWYQQKPGKAPKLLIYFASTLASGVPSRFSGSGSGTEFTLTISSLQPEDFATYYCLGGYDDDADTAFGGGTKVEIKGGGGSGGGGSGGGGSGGGGSEVQLVESGGGLVQPGGSLRLSCTVSGFSLSVYAINWVRQAPGKGLEWVGIINDVDDTAYSAWAKGRFTISRDNSKNTLYLQLNSLRAEDTAVYYCARGYLSYAYAGDAFDPWGQGTLVTVSSGM","EC50, B9 cell line bioassay",[5],0.933 ng/mL
same,"EC50, mouse splenocyte assay",[1],5.66 ng/mL
"13A8c-PEG-22H8c bispecific (bispecific antibody, C-terminal azidohomoalanine (Aha) joined through a 20 kDa PEG to the Aha of the other scFv) scFv 1: DIQLTQSPSFLSASVGDRVTITCQASQSISNELSWYQQKPGKAPKLLIYRASTLTSGVPSRFSGSGSGTEFTLTISSLQPEDFATYYCQQGYNSNDVDNVFGGGTKVEIKGGGGSGGGGSGGGGSGGGGSEVQLVESGGGLVQPGGSLRLSCTVSGIDLSSYDLSWVRQAPGKGLEWVGYIYTDSSTWYANWAKGRFTISRDNSKNTLYLQLNSLRAEDTAVYYCARGSTDYAFDTRLDLWGQGTLVTVSS scFv 2: DIQLTQSPSFLSASVGDRVTITCQSSQTVYKNNLLSWYQQKPGKAPKLLIYLASTLASGVPSRFSGSGSGTEFTLTISSLQPEDFATYYCLGGYDDDADTAFGGGTKVEIKGGGGSGGGGSGGGGSGGGGSEVQLVESGGGLVQPGGSLRLSCTVSGFSLSTYTLNWVRQAPGKGLEWVGAISYDGGTAYANWAKGRFTISRDNSKNTLYLQLNSLRAEDTAVYYCARGFYVYAYIGDAFDPWGQGTLVTVSS","EC50, B9 cell line bioassay",[5],0.246 ng/mL
same,"EC50, mouse splenocyte assay",[1],0.234 ng/mL
"13A8c-40KPEG-31A12c bispecific (bispecific antibody, C-terminal azidohomoalanine (Aha) joined through a linear 40 kDa PEG to the Aha of the other scFv) scFv 1: DIQLTQSPSFLSASVGDRVTITCQASQSISNELSWYQQKPGKAPKLLIYRASTLTSGVPSRFSGSGSGTEFTLTISSLQPEDFATYYCQQGYNSNDVDNVFGGGTKVEIKGGGGSGGGGSGGGGSGGGGSEVQLVESGGGLVQPGGSLRLSCTVSGIDLSSYDLSWVRQAPGKGLEWVGYIYTDSSTWYANWAKGRFTISRDNSKNTLYLQLNSLRAEDTAVYYCARGSTDYAFDTRLDLWGQGTLVTVSS scFv 2: DIQLTQSPSFLSASVGDRVTITCQASEDIESYLAWYQQKPGKAPKLLIYSASTLTSGVPSRFSGSGSGTEFTLTISSLQPEDFATYYCLGADDTTTVFGGGTKVEIKGGGGSGGGGSGGGGSGGGGSEVQLVESGGGLVQPGGSLRLSCTASGFSLSSYWLTWVRQAPGKGLEWVGTIATSSTYYASWAKGRFTISRDNSKNTLYLQLNSLRAEDTAVYYCARGLTTDYDLDLWGQGTLVTVSS","EC50, B9 cell line bioassay",[5],0.138 ng/mL
same,"EC50, mouse splenocyte assay",[1],2.7 ng/mL
"8C8 rabbit scFv (scFv, V domains shown) VH: QSVEESGGRLVAPGGSLTLTCKASGFSLSSSGVSWVRQAPGKGLEWIGYVSIADTISYANWAKGRFTISKTSSTTVDLEMTSLTTEDTATYFCVRGFITYSGVLWGPGTLVTVSS VL: QVLTQTPASVSAAVGGTVTISCQSSQNVYSNAFLSWYQQKPGQPPKLLIYKASKLASGVPSRFSGSGSGTQFTLTISGVQCDDAATYYCAGEYEGGIGTFGGGTEVVVVR","EC50, inhibition of IL-6 induced B9 cell proliferation",[5],0.51 ng/mL
"28D2 N-Aha (scFv, azidohomoalanine (Aha) in place of the single Met, at the N terminus, also called E. coli 28D2 scFv with Aha at the N term) scFv: MEDIQLTQSPSFLSASVGDRVTITCQASEDLFSSLAWYQQKPGKAPKLLIYSASTLASGVPSRFSGSGSGTDFTLTISSLQPEDFATYYCLGLYYYLTPDPIYGFGGGTKVEIKGGGGSGGGGSGGGGSGGGGSEVQLVESGGGLVQPGGSLRLSCTVSGLSLSKNAIAWVRQAPGKGLEWVGIIYAGGATTYASWAKGRFTISRDNSKNTLYLQLNSLRAEDTAVYYCAREYAGDSYYTGYTQLDLWGQGTLVTVSSGPPPPPHHHHHH",Kd,[6],62 pM
same,koff,[6],8.99e-05 s⁻¹
same,kon,[6],1.46e+06 M⁻¹ s⁻¹
"28D2-L Aha (scFv, azidohomoalanine (Aha) in place of a single Met in the Gly/Ser linker between VL and VH, also called E. coli 28D2 scFv with Aha in the Gly/Ser linker) scFv: MADIQLTQSPSFLSASVGDRVTITCQASEDLFSSLAWYQQKPGKAPKLLIYSASTLASGVPSRFSGSGSGTDFTLTISSLQPEDFATYYCLGLYYYLTPDPIYGFGGGTKVEIKGGGGSGMGGSGGGGSGGGGSEVQLVESGGGLVQPGGSLRLSCTVSGLSLSKNAIAWVRQAPGKGLEWVGIIYAGGATTYASWAKGRFTISRDNSKNTLYLQLNSLRAEDTAVYYCAREYAGDSYYTGYTQLDLWGQGTLVTVSSGPPPPPHHHHHH",Kd,[6],53 pM
same,koff,[6],6.88e-05 s⁻¹
same,kon,[6],1.3e+06 M⁻¹ s⁻¹
